Assay results taken from the supplement of paper PMC9170038.

Tested on: MS2 coat protein
Test: apparent KD of MS2 coat protein; designed switch direction (-1 OFF switch, 1 ON switch): -1; higher = weaker reporter binding
In short: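 Three titration conditions were used: no input, 200 uM small-molecule ligand, and an oligonucleotide input. In each, SNAP-549-labelled MS2 coat protein was raised from 0.7 or 1.5 nM, doubling, to 3 µM over designed RNA switches transcribed on Illumina chips by stalled E. coli RNA polymerase. Curve fits of normalised cluster fluorescence gave values whose per-design median over clusters is the apparent KD.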

[1] = input ligand: microRNA oligo, concentration not stated
[2] = Eterna round: R95, input ligand: FMN 200 uM
[3] = Eterna round: R95, input ligand: microRNA oligo, concentration not stated
[4] = Eterna round: R95, input ligand: none

| Sequence | apparent KD of MS2 coat protein (input ligand: FMN 200 uM) [nM] | apparent KD of MS2 coat protein (input ligand: none) [nM] | apparent KD of MS2 coat protein [3] [nM] | also measured |
| --- | --- | --- | --- | --- |
| GAUCCCAUUGUUAGGAUAUAUAGCCUAACGCGAGUGUAGAAGGGACAUGAGGAUCACCCAUGUGUGCAUUAGGG [Eternabot (L2) Solution 96] (Eterna round: R97, puzzle: Brourd's mod of Exclusion 4) | 37.2 | 43.8 | – | – |
| ACAUGAGGAUCACCCAUGUGAAAAGAAUGGCUGACACAGAGAUAGGAUAUAUGUGCAUAUCAAACAUAGAAGGGUCAUGACUGG [Deportation 83 - Jieux - Exclusion NG 3] (Eterna round: R96, puzzle: Exclusion NG 3) | – | – | – | apparent KD of MS2 coat protein [1]: 23 nM |
| GCGUAUGAGCAGGAUAUCCCGCGGGAAUCCAUAGGAGAAGGGCUCACAUGAGGAUCACCCAUGUGGUCCAGAAA [Isisan] (puzzle: Exclusion 6) | – | – | 16.1 | apparent KD of MS2 coat protein [2]: 20.2 nM; apparent KD of MS2 coat protein [4]: 18 nM |
| CCUCUGUGAGGAUAUUGGCAACACUGCACCCAAUAAAGCGCCGAGAAGGCACAUGAGGAUCACCCAUGUACGCA [Eternabot (L1) Solution 66] (Eterna round: R97, puzzle: Exclusion 4) | 22.4 | 18.4 | – | – |
| AGAAAUGCCCAUGGCCGCAAGCUUCUUGCUUGUCUUACCACAUGAGGAUCACCCAUGUGACAUGGGCUCCUUAUAAU [Xeceenqu] (puzzle: Sensor v3, turn-off variant 2) | – | – | 9.59 | apparent KD of MS2 coat protein [2]: 12.5 nM; apparent KD of MS2 coat protein [4]: 11.3 nM |
| CGCAGACAUGAGGAUCACCCAUGUCAGGAUAUACCUCAUAGCACCAGCUUAUGUAAGGGUAGAAGGGACUUGGA [Eternabot (L1) Solution 81] (Eterna round: R97, puzzle: Exclusion 1) | 86.1 | 56.8 | – | – |
| CGUACUAACACGAAAGUGUUAGUACAAUAAGCUUGUGAAACAUGAGGAUCACCCAUGUCCUCAUAAGCUCGUCUUAU [salish99_TOv2_r3_007] (Eterna round: R96, puzzle: Sensor v3, turn-off variant 2) | 15.6 | 17.9 | – | apparent KD of MS2 coat protein [1]: 486 nM |
| UUAUUAAGUGUGAGGAUAUGCUGGUCCUUGGAUCAGCAGAAGGCACAUGAGGAUCACCCAUGUACAUUAUUUUA [Mat - Exclusion 4 - JL Mod - D28] (puzzle: Brourd's mod of Exclusion 4) | – | – | 31.6 | – |
| ACUGUGACGUAGGAUAUCUCCUAAUUGCGCCGGAGAGAAGGACGUACAUGAGGAUCACCCAUGUGCCCUCGGAA [EX6 B.13] (Eterna round: R97, puzzle: Exclusion 6) | 300 | 56.4 | – | – |
| UUAUUGUGAGGAUAUCCAAUAUAUGACAUGAGGAUCACCCAUGUUUCCACUCGUACCUCCGGAGAAGGCACUUAUA [Ex5 #47] (Eterna round: R97, puzzle: Exclusion 5) | 28.6 | 32.3 | – | – |
| UGAUUGUUUACCAGGUUAUACAUGAGGAUCACCCAUGUAGAUCCUACGUGCGCGUUGUACCGCUCGUCUUAUUGCCA [Sensor-V1 #79] (Eterna round: R97, puzzle: Sensor, turn-off variant 1) | 19.5 | 21.3 | – | – |
| CUUUUGUGAGGAUAUCAGUAGUAAAAUAAUAAAAUAACUACUGAGAAGGCACAUGAGGAUCACCCAUGUUCCUC [Mat - Exclusion 4 - Mod of Salish - D73] (puzzle: Exclusion 4) | – | – | 33.9 | – |
| CUCUGACAUGAGGAUCACCCAUGUGAGGAUAUGAUGCAGCAGUGGUCUACGCUGUGCAUCAGAAGGCACAUGUG (puzzle: Exclusion 1) | – | – | 124 | – |
| UCUGUUCAAGGAUAUGCGUAAGGUGUUACGGCACCAGGUCUACAUGAGGAUCACCCAUGUAGAAGGUGAUCAGA [EX2 #88] (Eterna round: R97, puzzle: Exclusion 2) | 22.4 | 20.3 | – | – |
| GUAACAUGCUGGUGAUCAUACAUGAGGAUCACCCAUGUAACAAGCUUUUUGCUCGUCUUAAUUUAAUUGAUUACUAG [Stov1/8-A2] (Eterna round: R97, puzzle: Sensor, turn-off variant 1) | 137 | 106 | – | – |
| AAGUACCGUCACGAUAGUGAUGGUACAACUAGCAUGUAAACAUGAGGAUCACCCAUGUCCUCAAUUGCUCGUCUUAU [Sensor 3 - 69] (puzzle: Sensor v3, turn-off variant 2) | – | – | 829 | apparent KD of MS2 coat protein [2]: 740 nM; apparent KD of MS2 coat protein [4]: 814 nM |
| AUAAGUAUAUAGGAUAUCUAGCUGGUAACAGCUAGAGAAGGAUGUACAUGAGGAUCACCCAUGUAAAUCUCAAU [Ex6/12-A2] (Eterna round: R97, puzzle: Exclusion 6) | 15.7 | 16.1 | – | – |
| UGAUUGUUUACCAGAUUAUACAUGAGGAUCACCCAUGUAGAUCCUACGUGCACGUUAUACCGCUCGUCUUAUUCCCA [Sensor-V1 #75] (Eterna round: R97, puzzle: Sensor, turn-off variant 1) | 44.6 | 41.2 | – | – |
| CUGUUUUUCGCAGGAUAUGCUCCUCCUUUAUUUGCAGAAGGGCGUUAAACAUGAGGAUCACCCAUGUAUGGUAAUGACAUUUUC [JR_ExcNG1_Sub063] (Eterna round: R96, puzzle: Exclusion NG 1) | 135 | 29.6 | – | apparent KD of MS2 coat protein [1]: 20.8 nM |
| GGUGGACAUGAGGAUCACCCAUGUGAGGAUAUCGGCUGGUACGUGUUGGCUGGCAUCUCGAGAAGGCACAUAGG [Exclusion 1 V60] (puzzle: Exclusion 1) | – | – | 102 | – |
| UCCGCCAAAGGAUAUACUGGGCGUUAAAAUCCUCUUAAAAGACAUGAGGAUCACCCAUGUAGAAGGUUGAGGAA [Isererri] (puzzle: Exclusion 2) | – | – | 201 | – |
| GGUGGACAUGAGGAUCACCCAUGUGAGGAUAUCGGCCGGCUAGUGGCGGCUGGCUUCUCGAGAAGGCGCAUAGU [Exclusion 1 V77] (puzzle: Exclusion 1) | – | – | 37.3 | – |
| GCUCACGCAGGAUAUACAUGAGGAUCACCCAUGUUCGAAGGGCGCGGGUACAAAGUCUGUAGAAGGGCGAAAAU [Getiin] (Eterna round: R97, puzzle: Exclusion 3) | 26.1 | 19.8 | – | – |
| CUCAUGUGAGGAUAUAGUACUUCUUCUAUUAUUAUUGAGUACUAGAAGGCACAUGAGGAUCACCCAUGUAGUAC [Ex4 - 3 - 44] (puzzle: Exclusion 4) | – | – | 23.8 | – |
| AGCAUCUGAGGAUAUACUGGGUAUGGAAGGCGAAGGGCCAGACAUGAGGAUCACCCAUGUAGAAGGCAGUUUGC [Esenonan] (Eterna round: R96, puzzle: Exclusion 2) | 39.2 | 65.4 | – | apparent KD of MS2 coat protein [1]: 42 nM |
| GCAGGCGACUAGGCUCGUCUUAUUUUGAGAAGAUUGAAAACAUGAGGAUCACCCAUGUGUGUGGGAGAGUUGGAGUG [JR_SV3TOV2_Sub012] (puzzle: Sensor v3, turn-off variant 2) | – | – | 346 | apparent KD of MS2 coat protein [2]: 268 nM; apparent KD of MS2 coat protein [4]: 475 nM |
| AAGUGUCCUAAGGAUAUCGAAGCUAUCGGCUGCCGAGAAGGUAGGACAUGAGGAUCACCCAUGUACCGUGAGCC [Reedor] (puzzle: Exclusion 6) | – | – | 64.6 | – |
